doi:10.1101/541805

Biological target: rat Kv2.2-GFP (rat) (UniProt Q63099)

“GxTX-594 (guangxitoxin-1E Ser13Cys, Met35 norleucine, conjugated to Alexa 594) (from UniProt P84835 1-36) (peptide)” showed a Pearson correlation coefficient (colocalization with GFP) of 0.8.
